Experimental data published in article PMC4609290 (Molecular cell, 2015).

Legend:
AF10PZP [1] = target: T1, AF10PZP (Homo sapiens, UniProt P55197); experiment: Histone peptide pull-down with AF10PZP; assay type: binding; conditions: biotinylated H3 peptides, Western blot; GST-AF10PZP
T1 sequence (P55197 18-208 isoform P55197-1): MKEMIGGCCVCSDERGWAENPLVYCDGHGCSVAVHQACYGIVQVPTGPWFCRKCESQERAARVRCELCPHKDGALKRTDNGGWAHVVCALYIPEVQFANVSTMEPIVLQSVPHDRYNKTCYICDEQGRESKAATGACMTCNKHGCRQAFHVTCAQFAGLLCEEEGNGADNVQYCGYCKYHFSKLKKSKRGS

AF10PZP [2] = target: T1, AF10PZP; experiment: ITC binding of H3 peptides to AF10PZP; conditions: standard deviation derived from nonlinear fitting
AF17PZP = experiment: Histone peptide pull-down with AF17PZP; assay type: binding, human; conditions: biotinylated H3 peptides, Western blot
AF10PZP [3] = target: T1, AF10PZP; experiment: Binding of minimal H3 peptide to the PZP domain; conditions: Figure S1D
JADE1PZP = experiment: Histone peptide pull-down with JADE1PZP; assay type: binding, human; conditions: biotinylated H3 peptides, Western blot

Row | binding to AF10PZP (peptide pull-down) (AF10PZP [1]) | Kd (AF10PZP [2]) | binding to AF17PZP (peptide pull-down) (AF17PZP) | binding to JADE1PZP (peptide pull-down) (JADE1PZP) | Substance | binding of minimal peptide to the PZP domain (AF10PZP [3])
1 | abolished | could no longer be detected | abolished | – | H3_15-34 di-methylation at K27: H3_15-34 peptide with di-methylation at K27 | –
2 | – | – | – | – | H3(1-36) peptide spanning residues A21 to K27: minimal peptide, segment of H3(1-36) spanning residues A21 to K27 (ATKAARK; UniProt P68431 22-28, looked up, fragment) | sufficient for binding, though with weaker affinity than the longer peptide
3 | did not bind | – | did not bind | bound as expected | H3_1-21: peptide spanning amino acids 1-21 (H3_1-21; the very N-terminus of H3) | –
4 | disrupted recognition | – | disrupted recognition | – | H3K27 acetylated: Acetylation of H3K27, H3 (aa 15-34) peptides | –
